Results reported in patent US20100008978A1, “NANOPARTICLES EFFECTIVE FOR INTERNALIZATION INTO CELLS” (THE REGENTS OF THE UNIVERSITY OF CALIFORNIA, priority 2008, published 2010).
“Also recorded” adds a separate entry of the source.

Assays:
[1] = molecular target: T1, epidermal growth factor receptor (EGFR) on tumor cells (human, UniProt P00533 25-1210); experiment: apparent KD, flow cytometry, fluorescent immunoliposomes on MDAMB468 cells, 4 C; 74 scFv/liposome
T1 construct: whole, on cells; Intact EGFR on A431 and MDAMB468 cells (1x10^6-3x10^6 EGFR/cell); also called EGFR-expressing A431 cells; MDAMB468 cells

[2] = molecular target: T1, epidermal growth factor receptor (EGFR) …; experiment: apparent KD, flow cytometry, fluorescent immunoliposomes on MDAMB468 cells, 4 C; 148 scFv/liposome
[3] = molecular target: T2, A431 cells expressing EGFR (Homo sapiens, UniProt P00533); experiment: scFv affinity for cells expressing EGFR (A431) by flow cytometry; format: binding
T2 construct: Human squamous carcinoma A431 cells expressing EGFR; endogenous in cells; host or cells: A431
Experimental: Human squamous carcinoma A431 cells expressing EGFR were grown to 80-90% confluence in RPMI medium supplemented with 10% fetal bovine serum and harvested by trypsinization. […] Cell binding was performed at 4° C. in FACS buffer in a volume calculated to ensure fivefold scFv excess and for a duration calculated to ensure that the reaction had reached equilibrium. After two washes with 200 μL of FACS buffer, cell-bound scFv was detected by the addition of 100 μl of 1 μg/ml biotinylated His probe (Santa Cruz Biotech.) and a 1:800 (v/v) dilution of streptavidin-PE (Biosource). After incubation at 4° C. for 30 min, the cells were washed twice and resuspended in PBS containing 4% (v/v) paraformaldehyde. Fluorescence was measured by flow cytometry in a FACS LSRII instrument (Becton Dickinson), and the median fluorescence intensity (MFI) values were fit to the equation:
MFI=MFImin+MFImax([Ab]/(KD+[Ab])
using the software program Kaleidagraph as described previously (Benedict et al. (1997) J. Immunol. Methods, 201: 223-231).

NR6 cells = experiment: differential binding of scFv to cell lines by flow cytometry; settings: parental, EGFR negative
MDAMB468 cells = experiment: as above; set-up: species or system human; settings: 1×10^6−3×10^6 EGFR/cell
MDAMB453 cells = experiment: as above; settings: 10^4 EGFR/cell
[4] = molecular target: T3, EGFR (vIII) stably transfected NR6M cells (Homo sapiens, UniProt P00533, DELINS30-297G); experiment: as above
T3 construct: expressed in transfected cells; host or cells: NR6M (NR6 stably transfected with EGFRvIII)

biotinylated EGFR-ECD = molecular target: T4, biotinylated EGFR-ECD (Homo sapiens, UniProt P00533); experiment: KD of yeast-displayed scFv for biotinylated EGFR-ECD by flow cytometry; format: binding; settings: concentrations as high as 8 μM
T4 construct: Recombinant EGFR-ECD was expressed in HEK293 cells; made in house; host or cells: HEK293
Experimental: Generally, six to eight different concentrations of biotinylated EGFR were used to span a range of concentrations from ten times above to ten times below the KD. Incubation volumes, times and yeast numbers were chosen to ensure that the studies were done in at least fivefold antigen excess and that equilibrium had been achieved (Razai et al. (2005) J. Mol. Biol. 351: 158-169). For anti-EGFR scFv, […] in 50 μl were incubated with biotinylated EGFR-ECD for 1 h at room temperature. […] Only yeast displaying scFv (as determined by binding of SV5 mAb) were gated for affinity measurements.

A431 cells = molecular target: T5, A431 cells (Homo sapiens, UniProt P00533); experiment: differential binding of scFv to cell lines by flow cytometry; settings: 1×10^6−3×10^6 EGFR/cell
T5 construct: endogenous in cells; host or cells: A431

B1: EGFR-targeted immunoliposome constructed from C10 scFv (other)
VH: EVQLVQSGAEVKKPGSSVKVSCKASGGTFSSYAISWVRQAPGQGLEWMGGIIPIFGTANYAQKFQGRVTITADESTSTAYMELSSLRSEDTAVYYCAREEGPYCSSTSCYGAFDIWGQGTLVTVSS
VL: QSVLTQDPAVSVALGQTVKITCQGDSLRSYFASWYQQKPGQAPTLVMYARNDRPAGVPDRFSGSKSGTSASLAISGLQSEDEADYYCAAWDDSLNGYLFGAGTKLTVL
modifications: free cysteine residue at the COOH terminus conjugated to Mal-PEG-DSPE and inserted into the liposome ; The scFv carries a free cysteine at the COOH terminus conjugated to Mal-PEG-DSPE and inserted into a 100-120 nm liposome. It is multivalent, at 12-148 scFv per liposome. None of this can be carried by the letters.
notes: also called C10 ILs; C10 IL; not shown: scFv linker, the C-terminal extension with the free cysteine and tags, and the Mal-PEG-DSPE liposome carrier
- Kd [1]: 1.75 nM
- Kd [2]: 0.36 nM

B2: 2224: P2/2 scFv combined with the VH CDR3 Gly to Ala mutation from P2/4; SEQ ID NO:17 and 24 (protein)
scFv: QSVLTQDPAVSVALGQTVKITCQGDSLRSYLASWYQQKPGQAPTLVTYARNDRPAGVPDRFSGSKSGTSASLAISGLQSEDEADYYCAAWDDSLNGYLFGAGTKLTVL
modifications: Synthetic antibody
- improvement in affinity compared to C10 scFv [3]: 280 fold

B3: C10: parental (wild-type) internalizing human anti-EGFR scFv from a non-immune phage library; SEQ ID NO:1 (protein)
scFv: EVQLVQSGAEVKKPGSSVKVSCKASGGTFSSYAISWVRQAPGQGLEWMGGIIPIFGTANYAQKFQGRVTITADESTSTAYMELSSLRSEDTAVYYCAREEGPYCSSTSCYGAFDIWGQGTLVTVSS
modifications: Synthetic antibody
- binding to NR6 cells (NR6 cells): minimal binding; also recorded: did not stain
- binding to MDAMB468 cells (MDAMB468 cells): stained
- binding to MDAMB453 cells (MDAMB453 cells): did not stain
- binding to NR6M cells [4]: strong staining; also recorded: stained
- binding of yeast-displayed scFv to biotinylated recombinant EGFR (biotinylated EGFR-ECD): only minimal binding
- binding to A431 cells (A431 cells): stained
